First the molecules themselves.
B1: 1296 (ssDNA)
DNA: CAGGCUCGGCACGAGAGCAUCACCATGATCCUG
modifications: 2'-F U6,U20,C21,C30,C31; 2'-OMe C7,G8,G9,C10,A11,A22,C23,C24,A25,U32,G33; 3'-3' inverted T at nt 34
B2: 1297 (ssDNA)
DNA: CAGGCUCGGCACGAGAGCAUCCCAGATCCUG
modifications: 2'-F U6,U20,C21,C28,C29; 2'-OMe C7,G8,G9,C10,A11,C22,C23,A24,U30,G31; 3'-3' inverted T at nt 32
B3: 1265 (ssDNA)
DNA: CACAGGCTACGGCACGTAGAGCATCACCATGATCCUGUG
modifications: 2'-OMe C10,G11,G12,C13,A14,C25,A26,C27,C28,A29,U36,G37,U38,G39; 2'-F C34; 3'-3' inverted T at nt 40
B4: 1269 (ssDNA)
DNA: B3 DNA with T8U
modifications: 2'-F U8,C34; 2'-OMe C10,G11,G12,C13,A14,C25,A26,C27,C28,A29,U36,G37,U38,G39; 3'-3' inverted T at nt 40
B5: 1267 (ssDNA)
DNA: B3 DNA
modifications: 2'-OMe C10,G11,G12,C13,A14,C25,A26,C27,C28,A29,U36,G37,U38,G39; 2'-F C34,C35; 3'-3' inverted T at nt 40
B6: 1076 (ssDNA)
DNA: B3 DNA with T17U, T30U, U36T, U38T
modifications: 2'-OMe C1,A2,C3,C10,G11,G12,C13,A14,C15,G16,U17,A26,C27,C28,A29,U30; 3'-3' inverted T at nt 40
B7: 1257 (ssDNA)
DNA: B3 DNA with U36T
modifications: 2'-OMe C10,G11,G12,C13,A14,A26,C27,C28,A29,G37,U38,G39; 2'-F C34; 3'-3' inverted T at nt 40
B8: 1295 (ssDNA)
DNA: CAGGCUACGGCACGTAGAGCAUCACCATGATCCUG
modifications: 2'-F U6,U22,C23,C32,C33; 2'-OMe C8,G9,G10,C11,A12,A24,C25,C26,A27,U34,G35; 3'-3' inverted T at nt 36
B9: 1369 (ssDNA)
DNA: B8 DNA
modifications: 2'-F U6,U22,C23,C32,C33; 2'-OMe C8,G9,G10,C11,A12,G17,G19,A24,C25,C26,A27,U34,G35; 3'-3' inverted T at nt 36
B10: 1328 (ssDNA)
DNA: B8 DNA
modifications: 2'-F U6,U22,C23,C32,C33; 2'-OMe C8,G9,G10,C11,A12,G19,C20,A24,C25,C26,A27,U34,G35; 3'-3' inverted T at nt 36
B11: 1374 (ssDNA)
DNA: B8 DNA
modifications: 2'-F U6,U22,C23,C32,C33; 2'-OMe A7,C8,G9,G10,C11,A12,G17,G19,A24,C25,C26,A27,U34,G35; 3'-3' inverted T at nt 36
B12: 1327 (ssDNA)
DNA: B8 DNA
modifications: 2'-F U6,U22,C23,C32,C33; 2'-OMe C8,G9,G10,C11,A12,G19,A24,C25,C26,A27,U34,G35; 3'-3' inverted T at nt 36
B13: 1303 (ssDNA)
DNA: B8 DNA
modifications: 2'-F U6; 2'-OMe C8,G9,G10,C11,A12,U22,C23,A24,C25,C26,A27,C32,C33,U34,G35; 3'-3' inverted T at nt 36
B14: 1304 (ssDNA)
DNA: B8 DNA
modifications: 2'-OMe C5,U6,A7,C8,G9,G10,C11,A12,U22,C23,A24,C25,C26,A27,C32,C33,U34,G35; 3'-3' inverted T at nt 36
B15: 1306 (ssDNA)
DNA: B8 DNA
modifications: 2'-OMe C5,U6,C8,G9,G10,C11,A12,G19,U22,C23,A24,C25,C26,A27,C32,C33,U34,G35; 3'-3' inverted T at nt 36
B16: 1329 (ssDNA)
DNA: B8 DNA
modifications: 2'-F U6,U22,C23,C32,C33; 2'-OMe C8,G9,G10,C11,A12,G17,G19,C20,A24,C25,C26,A27,U34,G35; 3'-3' inverted T at nt 36
B17: 1305 (ssDNA)
DNA: B8 DNA
modifications: 2'-OMe C5,U6,C8,G9,G10,C11,A12,A18,U22,C23,A24,C25,C26,A27,C32,C33,U34,G35; 3'-3' inverted T at nt 36
B18: 1266 (ssDNA)
DNA: B3 DNA with T8U, T24U
modifications: 2'-F U8,U24,C25,C34,C35; 2'-OMe C10,G11,G12,C13,A14,A26,C27,C28,A29,U36,G37,U38,G39; 3'-3' inverted T at nt 40

Positions count from the first letter of the chain named.

T1 sequence (P01127 82-190, one chain of several): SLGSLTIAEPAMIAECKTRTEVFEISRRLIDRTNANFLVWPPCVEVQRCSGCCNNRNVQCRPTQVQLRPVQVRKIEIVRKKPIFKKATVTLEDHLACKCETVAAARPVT
Sequence of PDGF-AB (A-chain/B-chain heterodimer) (P01127 82-190, chain 2 of 2, other chains not shown): as the sequence (P01127 82-190, one chain of several) above

One data set concerns the target T1, PDGF-BB (mature B-chain homodimer) (Homo sapiens, UniProt P01127 P01127:82-190). Put plainly: inhibition; 125I-PDGF-BB binding to alpha-receptor on PAE cells, 4 C. To be noted: tags: R&D Systems, expressed in E. coli, carrier-free; chain copies: 2 B-chains (stated as BB isoform); three-way helix junction. As to the method:
Receptor Binding Assay. The binding of ′ ²⁵I-PDGF-AA and ¹²⁵I-PDGF-BB to porcine aortic endothelial (PAE) cells transfected with PDGF α- or β-receptors were performed as described (Heldin et al., (1988) EMBO J. 7:1387-1394). Different concentrations of DNA ligands were added to the cell culture (1.5 cm²) in 0.2 ml of phosphate buffered saline supplemented with 1 mg bovine serum albumin per ml together with ¹²⁵I-PDGF-AA (2 ng, 100,000 cpm) or ¹²⁵I-PDGF-BB (2 ng, 100,000 cpm). After incubation at 4° C. for 90 min, the cell cultures were washed and cell associated radioactivity determined in a g-counter (Heldin et al., (1988) EMBO J. 7:1387-1394).
The molecule TGGGAGGGCGCGTTCTTCGTGGTTACTTTTAGTCCCGT (ssDNA, 3'-3' inverted T at nt 38) [20t] showed an IC50 of roughly 1 nM.

TACTCAGGGCACTGCAAGCAATTGTGGTCCCAATGGGCTGAGTAT (ssDNA, 3'-3' inverted T at nt 45) [41t] registered an IC50 of roughly 1 nM.

For the molecule CACAGGCTACGGCACGTAGAGCATCACCATGATCCTGTGT (ssDNA, 3'-3' inverted T at nt 40) [36t], the IC50 is roughly 1 nM.

The target of a further data set is PDGF-AB (A-chain/B-chain heterodimer) (Homo sapiens, UniProt P04085;P01127 P04085:87-211,P01127:82-190). As to the kind of experiment: filter. To be noted: tags: R&D Systems, expressed in E. coli, carrier-free. As to the method:
(§1) Determination of the apparent equilibrium dissociation constants and the dissociation rate constants. The binding of ssDNA ligands at low concentrations to varying concentrations of PDGF was determined by the nitrocellulose filter binding method as described (Green et al. (1995) Chemistry and Biology 2:683-695). […] All ssDNA ligands were heated at 90° C. in binding buffer at high dilution (≈1 nM) for 2 min and cooled on ice prior to further dilution into the protein solution. The binding mixtures were typically incubated for 15 min at 37° C. before partitioning on nitrocellulose filters.
B1 registered a binding signal of 2.1 Kd ligand/Kd 36t.

In the case of B2, the binding signal is 2.9 Kd ligand/Kd 36t.

With CACAGGCTACGGCACGTAGAGCATCACCATGATCCTGTGT (ssDNA, 2'-OMe C25,A26,C27,C28,A29; 3'-3' inverted T at nt 40) [1145], the binding signal stood at 0.27 Kd ligand/Kd 36t.

Take CACAGGCTACGGCACGTAGAGCATCACCATGATCCTGTGT (ssDNA, 2'-F C34; 3'-3' inverted T at nt 40) [1162]: the binding signal worked out at 0.52 Kd ligand/Kd 36t.

With CACAGGCTACGGCACGTAGAGCATCACCATGATCCTGTGT (ssDNA, 2'-OMe C10,G11,G12,C13,A14; 3'-3' inverted T at nt 40) [EV3], the binding signal was 1.5 Kd ligand/Kd 36t.

Consider CACAGGCTACGGCACGTAGAGCATCACCATGATCCTGTGT (ssDNA, 2'-OMe A20,G21,C22; 3'-3' inverted T at nt 40) [EV1], for which the binding signal was found to be 35.1 Kd ligand/Kd 36t.

CACAGGCTACGGCACGTAGAGCATCACCATGATCCTGTGT (ssDNA, 2'-F C35; 3'-3' inverted T at nt 40) [1165] registered a binding signal of 0.61 Kd ligand/Kd 36t.

CACAGGCTACGGCACGTAGAGCATCACCATGATCCTGTGT (ssDNA, 2'-OMe C1,A2,C3,A4; 3'-3' inverted T at nt 40) [EV4] registered a binding signal of 4.5 Kd ligand/Kd 36t.

As to CACAGGCTACGGCACGTAGAGCATCACCATGATCCTGTGT (ssDNA, 2'-OMe G19,A20,G21,C22; 3'-3' inverted T at nt 40) [1149], the binding signal was 2.9 Kd ligand/Kd 36t.

In the case of CACAGGCTACGGCACGTAGAGCATCACCATGATCCTGTGT (ssDNA, 2'-F C22; 3'-3' inverted T at nt 40) [1160], the binding signal stood at 1.4 Kd ligand/Kd 36t.

Take CACAGGCTACGGCACGTAGAGCATCACCATGATCCTGTGT (ssDNA, 2'-F C25; 3'-3' inverted T at nt 40) [1161]: the binding signal was 0.22 Kd ligand/Kd 36t.

The molecule CACAGGCTACGGCACGTAGAGCATCACCATGATCCTGTGT (ssDNA, 2'-F C7; 3'-3' inverted T at nt 40) [1157] gave a binding signal of 1 Kd ligand/Kd 36t.

In the case of CACAGGCTACGGCACGUAGAGCATCACCATGATCCTGTG (ssDNA, 2'-OMe C10,G11,G12,C13,A14,C15,G16,U17; 3'-3' inverted T at nt 40) [1074], the binding signal amounted to 3.1 Kd ligand/Kd 36t.

The molecule CACAGGCTACGGCACGTAGAGCATCACCAUGATCCTGTG (ssDNA, 2'-OMe A26,C27,C28,A29,U30; 3'-3' inverted T at nt 40) [1075] registered a binding signal of 10 Kd ligand/Kd 36t.

CACAGGCTACGGCACGTAGAGCATCACCATGATCCTGTG (ssDNA, 2'-F U17; 3'-3' inverted T at nt 40) [1166] showed a binding signal of 0.76 Kd ligand/Kd 36t.

CACAGGCTACGGCACGUAGAGCAUCACCATGATCCTGTG (ssDNA, 2'-OMe U17,A23,U24; 3'-3' inverted T at nt 40) [1142] yielded a binding signal of 12.9 Kd ligand/Kd 36t.

B3 returned a binding signal of 1.4 Kd ligand/Kd 36t.

In turn, CACAGGCTACGGCACGTAGAGCATCACCATGATCCTGTG (ssDNA, 2'-F U24; 3'-3' inverted T at nt 40) [1159] came in with a binding signal of 0.37 Kd ligand/Kd 36t.

Turning to CACAGGCTACGGCACGTAGAGCATCACCATGATCCUGUG (ssDNA, 2'-OMe U36,G37,U38,G39; 3'-3' inverted T at nt 40) [EV5], the binding signal was 2.3 Kd ligand/Kd 36t.

For B4, the binding signal stood at 0.87 Kd ligand/Kd 36t.

CACAGGCTACGGCACGUAGAGCATCACCATGATCCTGTG (ssDNA, 2'-OMe G12,C13,A14,C15,G16,U17; 3'-3' inverted T at nt 40) [EV2]: the binding signal amounted to 5.3 Kd ligand/Kd 36t.

Consider B5, for which the binding signal was 4.2 Kd ligand/Kd 36t.

On to CACAGGCUACGGCACGTAGAGCATCACCATGATCCTGTG (ssDNA, 2'-OMe A4,G5,G6,C7,U8,A9; 3'-3' inverted T at nt 40) [1148], for which the binding signal came out at 281 Kd ligand/Kd 36t.

Regarding B6, the binding signal was determined as 440 Kd ligand/Kd 36t.

In turn, B7 displayed a binding signal of 1.3 Kd ligand/Kd 36t.

Molecule CACAGGCTACGGCACGTAGAGCATCACCATGATCCTGTG (ssDNA, 2'-F U33; 3'-3' inverted T at nt 40) [1158] returned a binding signal of 2.4 Kd ligand/Kd 36t.

Regarding CACAGGCTACGGCACGTAGAGCATCACCATGATCCTGTG (ssDNA, 2'-F U30; 3'-3' inverted T at nt 40) [1163], the binding signal came out at 1.3 Kd ligand/Kd 36t.

With CACAGGCTACGGCACGTAGAGCATCACCATGATCCTGTG (ssDNA, 2'-F U8; 3'-3' inverted T at nt 40) [1164], the binding signal came out at 0.45 Kd ligand/Kd 36t.

In turn, CACAGGCTACGGCACGTAGAGCATCACCATGAUCCUGTG (ssDNA, 2'-OMe G31,A32,U33,C34,C35,U36; 3'-3' inverted T at nt 40) [1144] displayed a binding signal of 994 Kd ligand/Kd 36t.

The molecule B8 came in with a binding signal of 0.9 Kd ligand/Kd 36t.

Molecule B9 returned a binding signal of 0.37 Kd ligand/Kd 36t.

With B10, the binding signal came out at 2.2 Kd ligand/Kd 36t.

Take B11: the binding signal was 1.5 Kd ligand/Kd 36t.

B12 displayed a binding signal of 0.63 Kd ligand/Kd 36t.

Molecule B13 showed a binding signal of 5.8 Kd ligand/Kd 36t.

B14 showed a binding signal of 607 Kd ligand/Kd 36t.

In turn, B15 yielded a binding signal of 4.4 Kd ligand/Kd 36t.

With B16, the binding signal was 0.72 Kd ligand/Kd 36t.

For the molecule B17, the binding signal was found to be 196 Kd ligand/Kd 36t.

Consider B18, for which the binding signal is 1 Kd ligand/Kd 36t.

A further data set deals with T1, PDGF-BB (mature B-chain homodimer). As to the kind of experiment: filter; printed as 0.159 ± 13 pM, unit evidently nM ± pM. To be noted: tags: R&D Systems, expressed in E. coli, carrier-free; chain copies: 2 B-chains (stated as BB isoform). As to the method: as §1
With CAGGCTACGGCACGTAGAGCATCACCATGATCCTGT (ssDNA, 3'-3' inverted T at nt 36) [36ta], binding was characterised by a dissociation constant (Kd) of 0.159 nM.

For the origin of these results see patent US20030036642, “Platelet derived growth factor (PDGF) nucleic acid ligand complexes” (published 2003).
